B1: T-box transcription factor TBX5 (Mus musculus), P70326 (parent)
chain: MADTDEGFGLARTPLEPDSKDRSCDSKPESALGAPSKSPSSPQAAFTQQGMEGIKVFLHERELWLKFHEVGTEMIITKAGRRMFPSYKVKVTGLNPKTKYILLMDIVPADDHRYKFADNKWSVTGKAEPAMPGRLYVHPDSPATGAHWMRQLVSFQKLKLTNNHLDPFGHIILNSMHKYQPRLHIVKADENNGFGSKNTAFCTHVFPETAFIAVTSYQNHKITQLKIENNPFAKGFRGSDDLELHRMSRMQSKEYPVVPRSTVRHKVTSNHSPFSSETRALSTSSNLGSQYQCENGVSGPSQDLLPPPNPYPLAQEHSQIYHCTKRKDEECSSTEHPYKKPYMETSPSEEDTFYRSGYPQQQGLSTSYRTESAQRQACMYASSAPPSEPVPSLEDISCNTWPSMPSYSSCTVTTVQPMDRLPYQHFSAHFTSGPLVPRLAGMANHGSPQLGEGMFQHQTSVAHQPVVRQCGPQTGLQSPGGLQPPEFLYTHGVPRTLSPHQYHSVHGVGMVPEWSENS

Assays:
[1] = variants of: B1; conditions: with klf13_mouse Klf13, Q9JJZ6
[2] = variants of: B1; conditions: with nkx25_mouse Nkx2-5, P42582
nkx25_mouse Nkx2-5, P42582, sequence (P42582 whole entry): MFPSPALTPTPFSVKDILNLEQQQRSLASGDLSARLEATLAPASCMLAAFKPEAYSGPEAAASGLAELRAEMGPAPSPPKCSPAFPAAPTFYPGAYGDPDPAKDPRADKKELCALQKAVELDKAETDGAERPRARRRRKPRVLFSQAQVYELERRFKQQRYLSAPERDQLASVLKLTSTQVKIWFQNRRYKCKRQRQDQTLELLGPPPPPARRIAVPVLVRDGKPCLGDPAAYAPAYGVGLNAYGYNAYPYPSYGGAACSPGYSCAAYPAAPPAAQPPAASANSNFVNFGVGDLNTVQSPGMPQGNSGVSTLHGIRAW

klf13_mouse Klf13, Q9JJZ6, sequence (Q9JJZ6 whole entry): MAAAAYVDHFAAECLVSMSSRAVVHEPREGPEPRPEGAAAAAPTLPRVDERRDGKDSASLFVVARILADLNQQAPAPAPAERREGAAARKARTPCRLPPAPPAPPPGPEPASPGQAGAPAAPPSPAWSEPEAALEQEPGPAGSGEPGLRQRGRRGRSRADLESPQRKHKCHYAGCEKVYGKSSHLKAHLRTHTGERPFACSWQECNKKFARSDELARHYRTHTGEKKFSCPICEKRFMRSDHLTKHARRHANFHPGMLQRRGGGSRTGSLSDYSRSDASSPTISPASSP

Variant	effect of a mutation on the interaction [1]	effect of a mutation on the interaction [2]
W121G	decreasing interaction strength	with no effect
R237Q	decreasing interaction strength	decreasing interaction strength
R134C	with no effect	with no effect
G195A	with no effect	decreasing interaction strength
T223M	decreasing interaction strength	decreasing interaction strength
G169R	decreasing interaction strength	decreasing interaction strength
T144I	decreasing interaction strength	decreasing interaction strength

Reference: IntAct's records for PubMed 28164238
